Assay results reported in the RNAGym collection of RNA variant scans (doi:10.7554/elife.80360).

B1: Hammerhead Ribozyme (parent)
chain: ACCGGAUGUGCUUUCCGGUCUGAUGAGUCCGUGAGGACGAAACAG

Variants of: B1
Assay: self-cleavage, relative activity (ratio to wild type); higher = more cleavage; co-transcriptional

| Variant | self-cleavage |
| --- | --- |
| C29U U32A | 0.902 |
| C29U U32G | 1.06 |
| C29U U32C | 0.843 |
| C29U C38U | 1.04 |
| C29U C38G | 0.559 |
| G31A A42G | 0.298 |
| G31A A42C | 0.38 |
| G31A A42U | 0.335 |
| C30G G33A | 0.715 |
| C30G G33U | 1.02 |
| C30G G33C | 0.807 |
| G31C U32G | 0.683 |
| G31C U32C | 0.773 |
| G31C U32A | 0.908 |
| C30G A37C | 0.337 |
| C30G A37G | 0.571 |
| C30G A37U | 0.358 |
| C30A C43A | 0.293 |
| C30A C43U | 0.431 |
| C30A C43G | 0.386 |
| C30G C43A | 0.287 |
| C30G C43U | 0.276 |
| C30G C43G | 0.267 |
| G31U U32A | 0.802 |

| Variant | self-cleavage |
| --- | --- |
| G31U U32G | 0.871 |
| G31U U32C | 0.69 |
| U32A C43U | 0.595 |
| U32A C43A | 0.347 |
| U32A C43G | 0.484 |
| G31A C43U | 0.499 |
| G31A C43G | 0.345 |
| G31A C43A | 0.329 |
| G31C G35U | 0.698 |
| G31C G35A | 0.966 |
| G31C G35C | 0.779 |
| G31A A34G | 0.846 |
| G31A A34C | 0.991 |
| G31A A34U | 0.954 |
| C30G G31C | 0.926 |
| C30G G31A | 0.806 |
| C30G G31U | 0.88 |
| C29U C43G | 0.319 |
| C29U C43U | 0.47 |
| C29U C43A | 0.337 |
| G31U C38U | 0.801 |
| G31U C38G | 0.59 |
| G31U C38A | 0.776 |
| C30A A41U | 0.377 |

| Variant | self-cleavage |
| --- | --- |
| C30A A41G | 0.347 |
| C30A A41C | 0.423 |
| C30G C38G | 0.493 |
| C30G C38U | 0.797 |
| C30G C38A | 0.402 |
| C30A G45C | 0.454 |
| C30A G45A | 0.575 |
| C30A G45U | 0.545 |
| G31C G36U | 0.562 |
| G31C G36A | 0.527 |
| G31C G36C | 0.453 |
| C30G G45C | 0.608 |
| C30G G45U | 0.377 |
| C30G G45A | 0.403 |
| U32A A40G | 0.312 |
| U32A A40U | 0.405 |
| U32A A40C | 0.622 |
| C30G A42C | 0.306 |
| C30G A42U | 0.227 |
| C30G A42G | 0.316 |
| G31A G36U | 0.552 |
| G31A G36A | 0.603 |
| G31A G36C | 0.671 |
| G31C A40C | 0.564 |

| Variant | self-cleavage |
| --- | --- |
| G31C A40G | 0.302 |
| G31C A40U | 0.367 |
| G31A A37G | 0.978 |
| G31A A37U | 0.866 |
| G31A A37C | 1.17 |
| C30A G35C | 0.793 |
| C30A G35A | 0.765 |
| C30A G35U | 1.17 |
| G31A U32C | 1 |
| G31A U32G | 0.529 |
| G31A U32A | 1.06 |
| G31U G39U | 0.353 |
| G31U G39C | 0.474 |
| G31U G39A | 0.32 |
| G31A G39U | 0.315 |
| G31A G39C | 0.377 |
| G31A G39A | 0.356 |
| C30A C38G | 0.48 |
| C30A C38U | 0.743 |
| C30A C38A | 0.386 |
| C30G A40C | 0.425 |
| C30G A40U | 0.283 |
| C30G A40G | 0.305 |
| C30G G35U | 1.04 |

| Variant | self-cleavage |
| --- | --- |
| C30G G35C | 1.03 |
| C30G G35A | 1.06 |
| C30U G36U | 0.498 |
| C30U G36C | 0.667 |
| C30U G36A | 0.547 |
| C30G U32A | 0.632 |
| C30G U32G | 0.651 |
| C30G U32C | 0.581 |
| C30U | 1.02 |
| C30A | 0.919 |
| C30G | 0.867 |
| U32A A44G | 1.41 |
| U32A A44C | 0.581 |
| U32A A44U | 0.633 |
| C30U G35A | 1.02 |
| C30U G35C | 0.758 |
| C30U G35U | 1.18 |
| G31A G33U | 1.15 |
| G31A G33C | 0.767 |
| G31A G33A | 0.887 |
| C30U A40U | 0.345 |
| C30U A40G | 0.333 |
| C30U A40C | 0.514 |
| G31U G35C | 0.654 |

| Variant | self-cleavage |
| --- | --- |
| G31U G35U | 1.03 |
| G31U G35A | 0.879 |
| C29U G36A | 0.722 |
| C29U G36C | 0.603 |
| C29U G36U | 0.483 |
| C30A U32A | 0.797 |
| C30A U32C | 0.879 |
| C30A U32G | 0.892 |
| C29U G45U | 0.596 |
| C29U G45A | 0.454 |
| C29U G45C | 0.443 |
| G31U A44G | 1.64 |
| G31U A44U | 0.94 |
| G31U A44C | 0.564 |
| G31U A40C | 0.797 |
| G31U A40U | 0.399 |
| G31U A40G | 0.382 |
| C30A A34U | 0.66 |
| C30A A34G | 0.628 |
| C30A A34C | 0.798 |
| C30A G31C | 0.872 |
| C30A G31A | 1.12 |
| C30A G31U | 1.07 |
| U32A A41C | 0.347 |

| Variant | self-cleavage |
| --- | --- |
| U32A A41G | 0.358 |
| U32A A41U | 0.405 |
| C30A G39C | 0.303 |
| C30A G39U | 0.418 |
| C30A G39A | 0.348 |
| U32C | 1 |
| U32A | 0.949 |
| C30U C43U | 0.546 |
| C30U C43G | 0.343 |
| C30U C43A | 0.34 |
| G31C G39A | 0.355 |
| G31C G39C | 0.314 |
| G31C G39U | 0.373 |
| C30G G36A | 0.553 |
| C30G G36U | 0.697 |
| C30G G36C | 0.441 |
| C29U G35C | 0.778 |
| C29U G35A | 0.636 |
| C29U G35U | 0.744 |
| U32A G36A | 0.721 |
| U32A G36U | 0.668 |
| U32A G36C | 0.37 |
| G31C | 0.96 |
